# Measured values reported in patent publication US20190263905A1 (DINONA, published 2019).
# Residue numbers refer to the chain shown, from its start.
# T1: Antigen CD66c (CEACAM6; Sino Biological, Inc.) (UniProt P40199 35-320)
# T1 construct: Bought antigen coated on the ELISA plate; construct not described; also called CD66c antigen; CECACAM6
# T1 sequence (looked up): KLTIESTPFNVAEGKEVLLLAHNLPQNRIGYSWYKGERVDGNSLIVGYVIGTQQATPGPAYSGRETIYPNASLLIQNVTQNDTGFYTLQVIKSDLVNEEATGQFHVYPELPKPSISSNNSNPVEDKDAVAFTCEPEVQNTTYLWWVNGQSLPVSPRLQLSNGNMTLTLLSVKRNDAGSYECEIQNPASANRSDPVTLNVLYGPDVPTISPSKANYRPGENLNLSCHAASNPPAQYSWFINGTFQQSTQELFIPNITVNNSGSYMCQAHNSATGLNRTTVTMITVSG
# T2: CEACAM1 antigen (Sino Biological, Inc.) (UniProt P13688 35-428)
# T2 construct: Bought antigen coated on the ELISA plate; construct not described; also called CEACAM1 (CD66a) antigen; CD66a
# T2 sequence (looked up): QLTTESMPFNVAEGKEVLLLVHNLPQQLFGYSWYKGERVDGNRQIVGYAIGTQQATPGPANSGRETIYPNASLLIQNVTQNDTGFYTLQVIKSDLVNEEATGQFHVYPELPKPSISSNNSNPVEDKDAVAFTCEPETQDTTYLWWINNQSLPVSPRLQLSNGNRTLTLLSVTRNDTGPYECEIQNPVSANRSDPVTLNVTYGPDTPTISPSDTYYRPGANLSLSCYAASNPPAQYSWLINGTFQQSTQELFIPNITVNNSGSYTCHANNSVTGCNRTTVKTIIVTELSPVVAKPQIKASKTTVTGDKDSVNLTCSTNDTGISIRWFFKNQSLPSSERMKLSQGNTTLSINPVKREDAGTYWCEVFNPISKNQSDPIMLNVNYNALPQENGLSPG
# T3: CD66c (CEACAM6) on CD66c-positive A549 non-small-cell lung cancer cells (UniProt P40199 35-320, limits assumed)
# T3 construct: whole, on cells; also called CD66c antigen; NCA-90
# T3 sequence (looked up): T1 sequence (looked up)
# B1: recombinant humanized anti-CD66c antibody Protein ID 3058 (Vk8 + VH11) (antibody, human IgG1, V domains shown)
# VH: QVQLVQSGAEVKKPGASVKISCKASGYSFTDYTMHWVKQAPGQNLEWIGLINPFGGSTSYAQKFKGRVTMTRDTSTNTAYMELSRLRSDDTAVYYCVRGDPVRHYYALAYWGQGTLVTVSS
# VL: DIQMTQSPSTLSASVGDRVTITCRASENVYGTLNWYQRKPGKAPKLLIYGATNLADGMPSRFSGSGSGTEYTLTISSLQPDDFATYYCQNVLSAPYTFGGGTKLEIK
# notes: also called hu 3058; #86
# B2: recombinant humanized anti-CD66c antibody Protein ID 3007 (Vk7 + VH6) (antibody, human IgG1, V domains shown)
# VH: QVQLVQSGAEVKKPGASMKISCKASGYSFTDYTMNWVKQAPGQNLEWIGLINPFHGGTVSNQRFKVKATLTVDVSTNTAYMELSRLRSDDTAVYYCVRGDPVRHYYALAYWGQGTLVTVSS
# VL: B1 VL with R24G, M58V
# notes: also called hu 3007; #43
# B3: recombinant humanized anti-CD66c antibody Protein ID 2938 (Vk5 + VH7) (antibody, human IgG1, V domains shown)
# VH: B2 VH with K38R, N44G
# VL: B1 VL with R24G, N34A, M58V, T69R
# notes: also called hu 2938
# B4: recombinant humanized anti-CD66c antibody Protein ID 3043 (Vk8 + VH6) (antibody, human IgG1, V domains shown)
# VH: B2 VH
# VL: B1 VL
# notes: also called hu 3043; #71
# B5: anti-CD66c chimeric antibody 8F5 (antibody, human IgG1, V domains shown)
# VH: EVQLQQSGPELVKPGASMKISCKASGYSFTDYTMNWVKQSHGKNLEWIGLINPFHGGTVSNQRFKVKATLTVDVSSNTAYMELLSLTSDDSAVYYCVRGDPVRHYYALAYWGQGTSVTVSS
# VL: DIQMTQSPASLSASVGETVTITCGASENVYGTLNWYQRKQGKSPQLLIYGATNLADGMSSRFSGSGSGRQYSLKISSLHPDDVATYYCQNVLSAPYTFGGGTKLEII
# notes: also called chimeric 8F5 antibody; chi 8F5
# Molecular target: T1, Antigen CD66c (CEACAM6; Sino …)
# Test: ELISA, coated CEACAM6 100 ng/well, antibody 1.52 ng/ml
# Method: (§1) Antigen CD66c (CEACAM6; Sino Biological, Inc.) and CEACAM1 antigen (Sino Biological, Inc.) were coated on a 96-well plate at 100 ng per well and then blocked. The primary antibody was diluted serially three fold from 10 ug/ml at initial concentration and was bound at 37° C. for 1 hour, and goat anti-Human Ig-HRP conjugate (Jackson ImmunoResearch) as a secondary antibody was diluted 1:10,000 and incubated at 37° C. for 30 minutes. The washing was carried out at three times between each step, and the TMB reaction was performed, stopped with 1N H₂SO₄ solution at the same amount of TMB solution (100 ul) and then OD value was measured at 450 nm.
# (§2) As a result of the experiment, the binding affinities to CD66c antigen of the five kinds of recombinant humanized antibodies selected from among 96 kinds of recombinant humanized antibodies are shown in FIG. 4a, Table 12, FIG. 4b and Table 13. FIG. 4a and Table 12 show the binding capacity of the antibodies to CECACAM6 CD66c) antigen, and FIG. 4b and Table 13 are the results for the CEACAM1 (CD66a) antigen.
row,Binder,OD 450 nm
1,B1,0.53 OD
2,B2,0.79 OD
3,B3,0.48 OD
4,B4,0.7 OD
5,B5,0.53 OD

# Molecular target: T1, Antigen CD66c (CEACAM6; Sino …)
# Test: ELISA, coated CEACAM6 100 ng/well, antibody 4.57 ng/ml
# Method: as §1, §2
row,Binder,OD 450 nm
1,B1,0.74 OD
2,B2,1.02 OD
3,B3,0.65 OD
4,B4,0.91 OD
5,B5,0.8 OD

# Molecular target: T2, CEACAM1 antigen (Sino Biological, Inc.)
# Test: ELISA, coated CEACAM1 100 ng/well, antibody 0.17 ng/ml
# Method: as §1, §2
row,Binder,OD 450 nm
1,B1,0.04 OD
2,B2,0.09 OD
3,B3,0.04 OD
4,B4,0.08 OD
5,B5,0.08 OD

# Molecular target: T2, CEACAM1 antigen (Sino Biological, Inc.)
# Test: ELISA, coated CEACAM1 100 ng/well, antibody 0.51 ng/ml
# Method: as §1, §2
row,Binder,OD 450 nm
1,B1,0.04 OD
2,B2,0.11 OD
3,B3,0.05 OD
4,B4,0.1 OD
5,B5,0.1 OD

# Molecular target: T2, CEACAM1 antigen (Sino Biological, Inc.)
# Test: ELISA, coated CEACAM1 100 ng/well, antibody 4.57 ng/ml
# Method: as §1, §2
row,Binder,OD 450 nm
1,B1,0.05 OD
2,B2,0.27 OD
3,B3,0.05 OD
4,B4,0.27 OD
5,B5,0.28 OD

# Molecular target: T2, CEACAM1 antigen (Sino Biological, Inc.)
# Test: ELISA, coated CEACAM1 100 ng/well, antibody 13.72 ng/ml
# Method: as §1, §2
row,Binder,OD 450 nm
1,B1,0.05 OD
2,B2,0.46 OD
3,B3,0.06 OD
4,B4,0.43 OD
5,B5,0.51 OD

# Molecular target: T2, CEACAM1 antigen (Sino Biological, Inc.)
# Test: ELISA, coated CEACAM1 100 ng/well, antibody 41.15 ng/ml
# Method: as §1, §2
row,Binder,OD 450 nm
1,B1,0.07 OD
2,B2,0.66 OD
3,B3,0.07 OD
4,B4,0.61 OD
5,B5,0.82 OD

# Molecular target: T2, CEACAM1 antigen (Sino Biological, Inc.)
# Test: ELISA, coated CEACAM1 100 ng/well, antibody 123.46 ng/ml
# Method: as §1, §2
row,Binder,OD 450 nm
1,B1,0.07 OD
2,B2,0.82 OD
3,B3,0.1 OD
4,B4,0.7 OD
5,B5,0.95 OD

# Molecular target: T1, Antigen CD66c (CEACAM6; Sino …)
# Test: ELISA, coated CEACAM6 100 ng/well, antibody 1111.11 ng/ml
# Method: as §1, §2
row,Binder,OD 450 nm
1,B1,3.19 OD
2,B2,3.23 OD
3,B3,3.16 OD
4,B4,2.74 OD
5,B5,3.3 OD

# Molecular target: T1, Antigen CD66c (CEACAM6; Sino …)
# Test: ELISA, coated CEACAM6 100 ng/well, antibody 3333.33 ng/ml
# Method: as §1, §2
row,Binder,OD 450 nm
1,B1,3.18 OD
2,B2,3.24 OD
3,B3,3.27 OD
4,B4,2.95 OD
5,B5,3.41 OD

# Molecular target: T2, CEACAM1 antigen (Sino Biological, Inc.)
# Test: ELISA, coated CEACAM1 100 ng/well, antibody 3333.33 ng/ml
# Method: as §1, §2
row,Binder,OD 450 nm
1,B1,0.31 OD
2,B2,1.15 OD
3,B3,0.27 OD
4,B4,1.22 OD
5,B5,1.24 OD

# Molecular target: T1, Antigen CD66c (CEACAM6; Sino …)
# Test: ELISA, coated CEACAM6 100 ng/well, antibody 10000.00 ng/ml
# Method: as §1, §2
row,Binder,OD 450 nm
1,B1,2.87 OD
2,B2,3.37 OD
3,B3,3.43 OD
4,B4,2.73 OD
5,B5,3.17 OD

# Molecular target: T3, CD66c (CEACAM6) on CD66c-positive A549 …
# Test: flow cytometry on A549 cells, relative to chimeric antibody
# Method: (§3) Each expressed 96 recombinant humanized antibody was poured and reacted in a test tube containing the same amount ([…]) of CD66c-positive A549 non-small-cell lung cancer cell line at 4° C. for 30 minutes, washed with PBS, and treated with FITC-conjugated goat anti-Human IgG (DiNona Inc, Korea) was added and incubated at 4° C. for 15 minutes. After washing with PBS, the cells were analyzed with a flow cytometer (Stratedigm, S1000EXi) and the results are shown below.
# (§4) Among the 96 recombinant humanized antibody candidates, eight were firstly selected based on the degree of expression, the presence of aggregation, and the degree of cell binding (Table 9 and Table 10, FIGS. 3A to 3E).
row,Binder,% (% gated × mean)
1,B1,103%
2,B2,88.8%
3,B3,96%
4,B4,105%
5,B5,100%

# Molecular target: T3, CD66c (CEACAM6) on CD66c-positive A549 …
# Test: flow cytometry on CD66c-positive A549 cells, FITC anti-human IgG
# Method: as §3, §4
row,Binder,% gated
1,B1,72%
2,B2,71%
3,B3,71%
4,B4,69%
5,B5,73%
